Legend:
[1] = target: T1, recombinant CD22 extracellular domain; assay: ELISA on plates coated with recombinant CD22 extracellular domain (coating 2, 0.2, 0.02 or 0.002 ug/ml per paragraph 227; the sheet does not say which), anti-human IgG-HRP, read at 450 nm
T1 construct: Kept apart from m18, which is cell-surface CD22; also called CD22 (analyte in the BIAcore runs); CD22 ECD
Experimental: Nunc-Immuno MaxiSorp 96 well plates were coated with 100 μl of 2 μg/ml, 0.2 μg/ml, 0.02 μg/ml or 0.002 μg/ml recombinant CD22 extracellular domain (PeproTech, Inc. catalog number 100-01 in coating solution (sodium bicarbonate in PBS). The plates were covered with plate sealer and incubated at 4° C. overnight. Plates were emptied and the residual liquid tapped out on paper towels. 200 μl washing solution (0.05% Tween-20 in PBS) was added and shaken at 200 RPM for 5 min at room temperature. The plates were emptied and residual liquid tapped out on paper towels. 200 μl blocking solution (2% Carnation milk in PBS) was added and shaken at 200 RPM for one hour at room temperature. Plates were emptied and residual liquid tapped out on paper towels. 100 μl of diluted samples containing VM1000, VM1001, VM1002, VM1003, VM1004, VM1005, VM1006, VM1007, VM1008, VM1009, VM1010, VM1011, VM1012, VM1013, VM1014, and VM1015 antibodies for ELISA were used. The samples were shaken at 200 RPM for one hour at room temperature; plates emptied and residual liquid tapped out on paper towels. 200 μl washing solution (0.05% Tween-20 in PBS) was added, shaken at 200 RPM for 5 min at room temperature; plates emptied and residual liquid tapped out on paper towels. This process was repeated three times. 100 μl of 1:2500 dilution of anti-human IgG conjugated with HRP diluted in block solution (2% Carnation milk in PBS) was added for all samples. 100 μl of 1:2500 dilution of anti-rabbit IgG conjugated with HRP diluted in block solution (2% Carnation milk in PBS) was added for control antibody. The contents were shaken at 200 RPM for one hour at room temperature, plates emptied and residue liquid tapped out on paper towels. 200 μl washing solution (0.05% Tween-20 in PBS) was added, shaken at 200 RPM for 5 min at room temperature; plates emptied and residual liquid tapped out on paper towels. This process was repeated three times. 100 μl TMB substrate solution was added, and incubated at room temperature. The reaction was stopped with 1 N HCl, and the plate read at 450 nm to determine relative binding affinity (FIG. 17).

[2] = target: T1, recombinant CD22 extracellular domain; assay: The sheet does not state the method. The column 'KD (nM)' stands beside the confocal data. The values largely repeat FIGURE 18 (SPR on recombinant CD22 extracellular domain), so the target form is taken from there.
Experimental: BIAcore 3000, GE Healthcare was used to determine binding curves and kinetic parameters. An anti-human Fc (1.8 mg/ml) was diluted to a concentration of 50 ug/ml in NaOAc buffer (10 mM, pH 4.8) and coupled to the carboxymethylated dextran matrix of a CM-5 sensor chip using the manufacturer's amine-coupling chemistry as described in the BIAcore systems manual. Using the surface preparation wizard aiming for 10000RU, the carboxyl groups on the sensor surfaces were first activated with NHS/EDC followed by the addition of the anti-human Fc. The remaining activated groups were blocked by the injection of 1M ethanolamine. Each of the flow cells was coupled individually. Employing these conditions, the four flow cell surfaces containing 7554-9571 RU of anti-human Fc were prepared. In preliminary experiments, it was determine that three injections (15 ul at 30 ul/min) 100 mM H₃PO₄/0.05% CHAPS would efficiently remove the bound immunoglobulin and preserve the binding capacity of the immobilized anti-human Fc.
Experiments were performed on the BIAcore 3000 at 25° C. and a flow rate of 30 ul/min. The antibody candidate was dissolved in HBS (10 mM HEPES with 0.15M NaCl, 3.4 mM EDTA, and 0.05% surfactant P20 at pH 7.4) at 5 ug/ml. The analyte, CD22, was dissolved in HBS at 0.25, 0.125, 0.062, 0.031 and 0.015 ug/ml. 3*30 ul of 5 ug/ml of antibody BA001 was flowed over its respective flow cell followed by injections of 240 ul of each CD22 concentration at 30 ul/min (association phase) and an uninterrupted 1200 seconds of buffer flow (dissociation phase). The surface of the chip was regenerated by three sequential injections of 15 ul each with 100 m M H₃PO₄/0.05% CHAPS. The injections of HBS serve as a reference (blank sensogram) for the subtraction of bulk refractive indices for analysis. Using the 1:1 model in BIAevaluation 4.1, both a local fit and global fit was done for both dissociation (kd, [s−1] and association (ka, [M⁻¹s⁻¹]) and the dissociation constant (KD, [M]) calculated (kd/ka).

T1 sequence (chain, as listed by the source limits assumed): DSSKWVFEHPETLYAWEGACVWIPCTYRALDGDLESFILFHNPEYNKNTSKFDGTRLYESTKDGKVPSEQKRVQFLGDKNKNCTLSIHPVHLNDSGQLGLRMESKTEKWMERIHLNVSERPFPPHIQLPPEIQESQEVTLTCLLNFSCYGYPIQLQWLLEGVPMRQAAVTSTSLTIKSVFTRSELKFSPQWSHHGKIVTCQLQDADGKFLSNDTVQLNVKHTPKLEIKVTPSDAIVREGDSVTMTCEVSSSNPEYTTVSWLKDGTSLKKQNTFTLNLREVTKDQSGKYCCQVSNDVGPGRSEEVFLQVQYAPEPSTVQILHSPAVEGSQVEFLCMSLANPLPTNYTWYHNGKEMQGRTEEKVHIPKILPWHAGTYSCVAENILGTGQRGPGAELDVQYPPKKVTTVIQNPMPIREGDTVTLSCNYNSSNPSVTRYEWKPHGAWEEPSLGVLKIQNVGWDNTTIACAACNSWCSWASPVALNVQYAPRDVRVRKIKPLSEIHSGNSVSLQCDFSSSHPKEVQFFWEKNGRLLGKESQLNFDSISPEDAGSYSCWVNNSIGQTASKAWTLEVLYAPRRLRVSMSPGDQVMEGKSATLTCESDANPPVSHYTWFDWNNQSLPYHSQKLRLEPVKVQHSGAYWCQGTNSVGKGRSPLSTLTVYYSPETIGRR

Row | ELISA OD 450 [1] | Kd [2] [pM] | Binder
1 | 0.517 | 500 | VM1000 (antibody, V domains shown, Humanized antibody with human constant region; also called anti-CD22 Mab clone VM1000) VH: QVQLVQSGAEVKKPGASVKVSCKASGYVFTSYWLHWIRQSPSRGLEWLGYINPRNDYTEYNRIFKGRLTISKDTSKNQVVLTMTNMDPVDTATYYCARRGITTFYWGQG VL: EIVLTQSPATLSLSPGERATLSCKSSQSVLYSAVEKNYLAWYQQKPGKAPKLLIYWASTRERGVPSRFSGSGSGTDFTFTISSLQPEDIATYYCKQYLSSWTFGQG
2 | 0.495 | 330 | VM1002 (antibody, V domains shown, Humanized antibody with human constant region; also called anti-CD22 Mab clone VM1002) VH: EVQLVQSGAEVKKPGESLRISCKGSGYVFTSYWLHWVRQAPGQGLEWMGYINPRNDYTEYNRIFKGRVTITADKSTSTAYMELSSLRSEDTAVYYCARRGITTFYWGQG VL: EIVLTQSPATLSLSPGERATLSCKSSQSVLYSAVEKNYLAWYQQKPGQAPRLLIYWASTRERGIPDRFSGSGSGTDFTLTISRLEPEDFAVYYCKQYLSSWTFGQG
3 | 0.444 | 800 | VM1004 (antibody, V domains shown, Humanized antibody with human constant region; also called anti-CD22 Mab clone VM1004) VH: EVQLVQSGAEVKKPGATVKISCKVSGYVFTSYWLHWIRQSPSRGLEWLGYINPRNDYTEYNRIFKGRFVFSLDTSVSTAYLQICSLKAEDTAVYYCARRGITTFYWGQG VL: EIVLTQSPATLSLSPGERATLSCKSSQSVLYSAVEKNYLAWYQQKPGKAPKLLIYWASTRERGIPDRFSGSGSGTDFTLTISRLEPEDFAVYYCKQYLSSWTFGQG
4 | 0.15 |  | VM1011 (antibody, V domains shown, Humanized antibody with human constant region; also called anti-CD22 Mab clone VM1011) VH: QVQLQESGPGLVKPSQTLSLTCTVSGYVFTSYWLHWIRQPPGKGLEWIGYINPRNDYTEYNRIFKGRVTITADKSTSTAYMELSSLRSEDTAVYYCARRGITTFYWGQG VL: EIVLTQSPATLSLSPGERATLSCKSSQSVLYSAVEKNYLAWYQQKPGQAPRLLIYWASTRERGIPDRFSGSGSGTDFTLTISRLEPEDFAVYYCKQYLSSWTFGQG
5 | 0.386 | 220 | VM1001 (antibody, V domains shown, Humanized antibody with human constant region; also called anti-CD22 Mab clone VM1001) VH: QVQLVQSGAEVKKPGASVKVSCKASGYVFTSYWLHWIRQSPSRGLEWLGYINPRNDYTEYNRIFKGRLTISKDTSKNQVVLTMTNMDPVDTATYYCARRGITTFYWGQG VL: EIVLTQSPATLSLSPGERATLSCKSSQSVLYSAVEKNYLAWYQQKPGQAPRLLIYWASTRERGIPDRFSGSGSGTDFTLTISRLEPEDFAVYYCKQYLSSWTFGQG
6 | 0.56 | 340 | VM1003 (antibody, V domains shown, Humanized antibody with human constant region; also called anti-CD22 Mab clone VM1003) VH: EVQLVQSGAEVKKPGATVKISCKVSGYVFTSYWLHWIRQSPSRGLEWLGYINPRNDYTEYNRIFKGRFVFSLDTSVSTAYLQICSLKAEDTAVYYCARRGITTFYWGQG VL: EIVLTQSPATLSLSPGERATLSCKSSQSVLYSAVEKNYLAWYQQKPGQAPRLLIYWASTRERGIPDRFSGSGSGTDFTLTISRLEPEDFAVYYCKQYLSSWTFGQG
7 | 0.638 |  | VM1006 (antibody, V domains shown, Humanized antibody with human constant region; also called anti-CD22 Mab clone VM1006) VH: QVQLVQSGAEVKKPGASVKVSCKASGYVFTSYWLHWIRQSPSRGLEWLGYINPRNDYTEYNRIFKGRFVFSLDTSVSTAYLQICSLKAEDTAVYYCARRGITTFYWGQG VL: DIQMTQSPSSLSASVGDRVTITCKSSQSVLYSAVEKNYLAWYQQKPGKAPKLLIYWASTRERGIPDRFSGSGSGTDFTLTISRLEPEDFAVYYCKQYLSSWTFGQG
8 | 0.538 | 1000 | VM1007 (antibody, V domains shown, Humanized antibody with human constant region; also called anti-CD22 Mab clone VM1007) VH: QVQLVQSGAEVKKPGASVKVSCKASGYVFTSYWLHWVRQARGQRLEWIGYINPRNDYTEYNRIFKGRVTITADKSTSTAYMELSSLRSEDTAVYYCARRGITTFYWGQG VL: AIQLTQSPSSLSASVGDRVTITCKSSQSVLYSAVEKNYLAWYQQKPGKAPKLLIYWASTRERGVPSRFSGSGSGTDFTFTISSLEAEDAATYYCKQYLSSWTFGQG

Reference: US20150086562A1 (BIOATLA, published 2015)
